Consider two substances from PMC11676905.

The target of test [1] is rTBL-1 R103Q mutant lectin (Phaseolus acutifolius). Briefly: SEC; ENrich SEC 650 column calibrated with gel filtration standard; 200 µL of sample at 10 mg/mL; 20 mM MES, 100 mM NaCl, pH 6.5; single peak at approximately 120 kDa. Background: Size exclusion chromatography separates by hydrodynamic size, large species first.
The target in test [2] is rTBL-1 R130Q mutant lectin (Phaseolus acutifolius). The description is as above.

What is called stoichiometry N is the number of molecules, sites or subunits per partner or assembly. As to “rTBL-1 R103Q mutant lectin (natural protein)”, the stoichiometry N in test [1] was found to be 4.
“rTBL-1 R130Q mutant lectin (natural protein)” registered a stoichiometry N in test [2] of 4.
